Experimental data as given in patent US20190369104A1, “P27 TYROSINE PHOSPHORYLATION AS A MARKER OF CDK4 ACTIVITY AND METHODS OF USE THEREOF” (THE RESEARCH FOUNDATION FOR THE STATE UNIVERSITY OF NEW YORK, priority 2016, published 2019).

B3: Brk SH3 domain (displayed on phage) (other)
chain: KYVGLWDFKSRTDEELSFRAGDVFHVARKEEQWWWATLLDEAGGAVAQGYVPHNYLAER
notes: also called SH3 domain of Brk

Assays:
[1] = test system: HCC1954 cells; test: Palbociclib inhibitor treatment, viable cell count IC50; type: cell-based; conditions: Homo sapiens; HCC1954 cells (Rb+)
Protocol: (§1) Cells were seeded on six well plates in duplicate, 5.0×10^4 per well. 24 hours post seeding, one well for each plate was treated with trypsin and counted using the Biorad Automated cell counter. 48 hours post seeding, another well was treated with trypsin and counted and the rest of the wells were treated with Palbociclib (SelleckChem) at 50 nM, 100 nM, 200 nM and 400 nM. DMSO was used as a negative control. Cells were counted again 24 and 48 h post treatment. The IC50 values were determined by normalizing the number of viable cells treated with different concentrations of Palbociclib to the number of viable cells treated with DMSO for each cell line 48 hours post treatment. The number of viable cells treated with DMSO was considered 100%. The log of the viability values was obtained and the data was fitted to a nonlinear regression curve, which was used to generate the IC50 values using Graphpad Prism software.

[2] = test system: MCF7 cells; test: as above; type: cell-based; conditions: Homo sapiens
Protocol: as §1

[3] = test system: MDA MB231 cells; test: as above; type: cell-based; conditions: Homo sapiens, MDA-MB-231
Protocol: as §1

[4] = test system: MCF7-Wt Brk expressing cells; test: Palbociclib (PD) resistance of Brk-overexpressing cells, IC50; type: cell-based; conditions: Homo sapiens
Protocol: as §1
Generation of the WT-Brk, KM-Brk, and YF-Brk has been described (Palka-Hamblin H. L. et al., […] J. Cell Sc. 123: 236-45). Amphotropic retroviruses were generated by transfection using Lipofectamine 2000 (Life Technologies 11668-019) of HEK 293 cells with pAmpho envelope and pBabe or pTRE3G tetracycline inducible constructs. Following viral infection of MCF7 cells, stable integrants were isolated by puromycin selection. […]

[5] = test system: p27 pY88 in MCF7 cells; test: Dual pY/p27 IHC assay on cell blocks; type: cell-based; design: key to pY staining intensity: 0: no pY staining; 1: weak pY staining; 2: moderate pY staining; 3: strong pY staining; conditions: MCF7 cells treated with 400 nM Palbociclib, 48 h
Protocol: 1×10^12 cells were grown in tissue culture, spun down and fixed in 10% formalin, embedded in paraffin, and then analyzed in the dual pY/p27 IHC assay as described. MCF7 cells were treated with 400 nM Palbociclib for 48 h. before cell block preparation. […] On day 1, slides are labeled with a pencil and baked in an oven at 65° C. for 30 minutes and immediately transferred from the oven to a coplin jar containing Xylene. Slides are rinsed in Xylene 4× for 3 minutes each at room temperature followed by a graded alcohol wash at 100%-95%-75% ethanol 3 times, 3 min each at R.T. Slides were then hydrated by incubation in H2O once for 3 min. After drying, a hydrophobic barrier was created around the tissue using a PAP pen. Endogenous peroxide was blocked by incubating the slides with Peroxide block for 30 min at room temp. The slides were washed with TBS-0.1% Tween 20 3 times for 3 minutes each followed by incubation in 1×PBS for 3 min. After an incubation with a with protein block for 1 h at R.T, P27 [MUT] antibody diluted 1:200 in the DAKO antibody diluent was added to the slides for an overnight incubation at 4° C. On day 2, a 1× solution of antigen retrieval was prepared from 10× stock and it was equilibrated at 100° C. in the water bath. […]

[6] = target: B3; test: phage-ELISA on immobilised GST-K2
Text: (§2) (FIG. 1A) p27 sequence highlighting the proline tracts of the three putative SH3 domain recruitment sites (PxxP): K1 (90-96), K2 (114-117) and K3 (188-195) (SEQ ID NO: 1). Phage-ELISA-analysis of SFK SH3 interactions with p27 (FIG. 1B) or p27's PxxP motifs (FIG. 1C). Data shown is the mean of three independent experiments±standard deviation after normalization and subtraction of the background binding to GST.
(§3) Phage supernatants were generated and binding of SH3-phages to recombinantly produced His-tagged-p27 or GST-PxxP-peptides were analyzed as described (Asbach B. et al., (2012) PLoS One 6: e38540).

[7] = target: T1, Abl SH3 domain (displayed on phage) (UniProt P00519 61-121, limits assumed); test: phage-ELISA on immobilised GST-K2
T1 construct: domain: SH3
T1 sequence (P00519 61-121 limits assumed): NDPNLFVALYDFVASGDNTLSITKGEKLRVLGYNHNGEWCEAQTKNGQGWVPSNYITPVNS
Text: as §2, §3

[8] = target: T2, Yes SH3 domain (displayed on phage) (UniProt P07947 91-152, limits assumed); test: phage-ELISA on immobilised GST-K2
T2 construct: domain: SH3
T2 sequence (P07947 91-152 limits assumed): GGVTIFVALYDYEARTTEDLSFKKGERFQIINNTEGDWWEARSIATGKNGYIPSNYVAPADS
Text: as §2, §3

[9] = test system: ER/PR+, Her2− breast cancer cell lines; test: ALT (alone or with Palbociclib) in breast cancer cell lines; type: cell-based
Text: To block pY in breast cancer cell lines, we used a small peptide ALT, which contains a portion of Brk's SH3 domain. ALT binds to p27, blocks Brk's association and ability to phosphorylate p27, inhibiting cdk4 and increasing p27's ability to inhibit cdk2. We generated Tetracycline inducible cell lines that expressed ALT and/or engineered a lipid-based nanoparticle delivery vehicle (NP-ALT), permitting us to test ALT as a first generation therapeutic. ALT was also used with Palbociclib to determine if combination therapy reduced drug resistance. pY inhibition comes with a built in biomarker for efficacy and the identification of responsive cell lines and/or future patients. We developed a dual IHC assay for p27 and pY, which we used to analyze both a breast cancer cell line panel previously stratified for Palbociclib sensitivity as well as paraffin-embedded, archival human tumor samples.

[10] = target: T3, recombinantly produced His-tagged p27 (full-length p27) (human, UniProt P46527 1-198); test: phage-ELISA, SH3 phage on immobilised His-p27 (multivalent phage)
T3 construct: also called p27Kip1; His-p27; not shown: C-terminal histidine tag
T3 sequence (P46527 whole entry): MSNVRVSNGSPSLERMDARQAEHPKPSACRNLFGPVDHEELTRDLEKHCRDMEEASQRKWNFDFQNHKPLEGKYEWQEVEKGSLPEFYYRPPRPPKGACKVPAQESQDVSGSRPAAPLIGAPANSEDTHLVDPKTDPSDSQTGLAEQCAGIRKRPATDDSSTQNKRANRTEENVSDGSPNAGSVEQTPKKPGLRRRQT
Protocol: as §3

[11] = ER/PR+, Her2− breast cancer cell lines

CC(=O)c1c(C)c2cnc(Nc3ccc(N4CCNCC4)cn3)nc2n(C2CCCC2)c1=O [Palbociclib]
IC50 [1]: 1000 nM
IC50 [2]: 200 nM
IC50 [3]: 400 nM
IC50 [4]: ~600 nM
pY staining, % of cells stained [5]: 0%
pY staining intensity ([5]; scale 0-3): 0

B1: GST-K2 (GST-tagged p27 PxxP peptide K2) (peptide)
chain: DVSGSRPAAPLIGAPA
notes: also called K2 site; not shown: N-terminal GST tag from the pGEX-KG expression vector
binding result [6]: no binding
binding result [7]: no binding
binding result [8]: no binding

B2: ALT: small peptide ALT, which contains a portion of Brk's SH3 domain; alternatively-spliced form of Brk (SEQ ID NO: 12) (protein)
chain: MVSRDQAHLGPKYVGLWDFKSRTDEELSFRAGDVFHVARKEEQWWWATLLDEAGGAVAQGYVPHNYLAERETVESEPAGHAGCAALQDLAACRGPAAPERGGVLPQPARACELPQGPEPVPRPAAGRALPEARA
modifications: Alt-Brk
cdk2 activity [9, 11]: blocked
cdk4 activity [9, 11]: blocked
pY [9, 11]: blocked
proliferation [9, 11]: blocked
duration of arrest ([9]; breast cancer cell lines): > 10 days

B3
Kd [10]: 250 nM
